The source of these data is article PMC6925387 (Life Science Alliance, 2019).

What is called Kd is the free concentration of one partner at which half of the binding sites on the other are occupied at equilibrium, for simple one-to-one binding. A low value points to a tighter complex. By stoichiometry N is commonly meant the number of molecules, sites or subunits per partner or assembly.

The target of test [1] is Cedar virus attachment glycoprotein (CedV-G), HA-tagged, expressed on the cell surface (Cedar virus). Nature of the test: flow cytometry on cells.
Test [2] concerns the target T1, Ghana virus attachment glycoprotein (GhV-G), HA-tagged, expressed on the cell surface (Ghana virus, UniProt I0E093 1-632).
T1 construct: also called Ghanaian bat henipavirus G; HNV-G; not shown: HA, C-terminal, kept
T1 sequence: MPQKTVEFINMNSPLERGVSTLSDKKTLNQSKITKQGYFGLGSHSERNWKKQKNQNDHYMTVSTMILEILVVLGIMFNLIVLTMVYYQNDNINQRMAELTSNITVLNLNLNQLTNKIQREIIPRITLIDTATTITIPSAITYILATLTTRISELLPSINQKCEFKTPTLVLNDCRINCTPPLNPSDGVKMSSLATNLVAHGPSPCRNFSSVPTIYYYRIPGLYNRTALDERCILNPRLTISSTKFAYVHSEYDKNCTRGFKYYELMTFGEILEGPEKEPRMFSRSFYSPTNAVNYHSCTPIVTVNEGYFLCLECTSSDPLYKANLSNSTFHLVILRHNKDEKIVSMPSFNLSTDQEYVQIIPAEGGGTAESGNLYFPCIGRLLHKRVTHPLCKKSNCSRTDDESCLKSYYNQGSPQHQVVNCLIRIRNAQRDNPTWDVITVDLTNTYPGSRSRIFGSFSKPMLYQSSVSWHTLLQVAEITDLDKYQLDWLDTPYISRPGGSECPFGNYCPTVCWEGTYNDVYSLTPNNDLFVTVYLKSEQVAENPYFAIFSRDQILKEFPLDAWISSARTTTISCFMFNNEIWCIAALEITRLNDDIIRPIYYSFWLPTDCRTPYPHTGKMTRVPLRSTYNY
Put plainly: flow cytometry on cells. Particulars: one partner purified.

The target in test [3] is T2, Hendra virus attachment glycoprotein (HeV-G), HA-tagged, expressed on the cell surface (Hendra virus, UniProt O89343 1-604).
T2 construct: also called HNV-G; G of HeVpp; not shown: HA, C-terminal, kept
T2 sequence: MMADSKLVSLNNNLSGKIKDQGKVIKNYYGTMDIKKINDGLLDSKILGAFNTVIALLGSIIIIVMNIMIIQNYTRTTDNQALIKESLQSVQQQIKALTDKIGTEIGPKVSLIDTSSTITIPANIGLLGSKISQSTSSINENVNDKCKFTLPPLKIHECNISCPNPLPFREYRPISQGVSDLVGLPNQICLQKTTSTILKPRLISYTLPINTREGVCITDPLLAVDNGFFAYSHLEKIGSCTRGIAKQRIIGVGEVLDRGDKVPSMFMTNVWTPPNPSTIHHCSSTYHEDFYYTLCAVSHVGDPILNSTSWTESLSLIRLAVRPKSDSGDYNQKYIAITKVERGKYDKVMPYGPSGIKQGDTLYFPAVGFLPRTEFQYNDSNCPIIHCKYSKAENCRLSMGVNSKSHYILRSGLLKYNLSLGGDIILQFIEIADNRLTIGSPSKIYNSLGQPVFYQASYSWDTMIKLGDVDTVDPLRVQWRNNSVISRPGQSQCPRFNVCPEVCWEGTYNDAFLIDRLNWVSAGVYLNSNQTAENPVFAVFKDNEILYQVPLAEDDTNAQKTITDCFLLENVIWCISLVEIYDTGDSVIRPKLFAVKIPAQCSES
Put plainly: flow cytometry on cells. Particulars: one partner purified. On the technique in general: Flow cytometry measures light scatter and fluorescence of single cells or particles in a stream.

For test [4], the target named is T3, Nipah virus attachment glycoprotein (NiV-G), HA-tagged, expressed on the cell surface (Nipah virus, UniProt Q9IH62 1-602).
T3 construct: also called HNV-G; G of NiVpp
T3 sequence: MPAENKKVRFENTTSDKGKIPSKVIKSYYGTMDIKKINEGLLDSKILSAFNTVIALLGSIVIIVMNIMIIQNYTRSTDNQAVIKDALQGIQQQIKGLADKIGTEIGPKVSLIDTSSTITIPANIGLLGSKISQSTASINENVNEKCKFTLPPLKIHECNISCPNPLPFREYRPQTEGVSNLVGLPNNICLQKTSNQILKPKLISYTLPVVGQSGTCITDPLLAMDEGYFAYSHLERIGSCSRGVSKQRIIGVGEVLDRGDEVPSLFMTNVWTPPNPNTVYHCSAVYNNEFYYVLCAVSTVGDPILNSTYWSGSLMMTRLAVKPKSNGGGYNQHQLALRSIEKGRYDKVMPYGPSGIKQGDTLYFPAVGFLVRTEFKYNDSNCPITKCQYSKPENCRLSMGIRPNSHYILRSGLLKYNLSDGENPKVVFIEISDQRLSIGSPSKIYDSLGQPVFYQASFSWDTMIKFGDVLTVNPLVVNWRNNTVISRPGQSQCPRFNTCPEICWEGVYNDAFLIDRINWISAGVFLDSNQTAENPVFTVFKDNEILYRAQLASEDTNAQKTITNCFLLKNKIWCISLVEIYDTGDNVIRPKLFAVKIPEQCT
Nature of the test: flow cytometry on cells. Particulars: one partner purified.

The target in test [5] is T4, CedV-G receptor-binding six-bladed β-propeller domain (residues 209–622) (Cedar virus, UniProt J7H333 209-622, high-mannose N-linked glycans (expression in the presence of kifunensine)).
T4 sequence: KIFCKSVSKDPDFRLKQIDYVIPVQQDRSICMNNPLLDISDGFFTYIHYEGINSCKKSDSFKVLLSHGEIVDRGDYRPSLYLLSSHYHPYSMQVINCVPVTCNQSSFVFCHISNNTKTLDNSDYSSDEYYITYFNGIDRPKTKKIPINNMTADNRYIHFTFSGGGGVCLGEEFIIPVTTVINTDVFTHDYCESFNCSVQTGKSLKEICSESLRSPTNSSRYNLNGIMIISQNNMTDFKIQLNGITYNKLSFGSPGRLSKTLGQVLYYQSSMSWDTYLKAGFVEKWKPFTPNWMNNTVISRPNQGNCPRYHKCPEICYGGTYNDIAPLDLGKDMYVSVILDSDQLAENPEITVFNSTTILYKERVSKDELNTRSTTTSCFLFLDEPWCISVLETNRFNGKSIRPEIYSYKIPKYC
Nature of the test: crystal structure. Particulars: both partners purified.

For “Soluble human ephrin-B2–Fc (from UniProt P52799) (Fc fusion)”, the Kd in test [1] came out at 2.3 nM. On the same count and under the same terms, the result for “Soluble human ephrin-B1–Fc (from UniProt P98172) (Fc fusion)” reads 4 nM.

B1: Soluble human ephrin-B2–Fc (Fc fusion)
chain: IVLEPIYWNSSNSKFLPGQGLVLYPQIGDKLDIICPKVDSKTVGQYEYYKVYMVDKDQADRCTIKKENTPLLNCAKPDQDIKFTIKFQEFSPNLWGLEFQKNKDYYIISTSNGSLEGLDNQEGGVCQTRAMKILMKVGQDASSAGSTRNKDPTRRPELEAGTNGRSSTTSPFVKPNPGSSTDGNSAGHSGNNILGSEVALFA
notes: also called sEphrin-B2–Fc; ephrin-B–Fc; source: bought: R&D Systems
As to B1, the Kd stood at 0.82 nM in test [2], 0.86 nM in test [3] and 1.4 nM in test [4].

B2: Human ephrin-B1 N-terminal extracellular domain (residues 29–167) (domain or fragment)
chain: AKNLEPVSWSSLNPKFLSGKGLVIYPKIGDKLDIICPRAEAGRPYEYYKLYLVRPEQAAACSTVLDPNVLVTCNRPEQEIRFTIKFQEFSPNYMGLEFKKHHDYYITSTSNGSLEGLENREGGVCRTRTMKIIMKVGQD
modifications: high-mannose N-linked glycans (expression in the presence of kifunensine)
notes: also called extracellular β-barrel domain of human ephrin-B1; ephrin-B1 ectodomain
With B2, the “stoichiometry N” value in test [5] worked out at 1.

B3: Soluble human ephrin-B3–Fc (Fc fusion)
chain: LSLEPVYWNSANKRFQAEGGYVLYPQIGDRLDLLCPRARPPGPHSSPNYEFYKLYLVGGAQGRRCEAPPAPNLLLTCDRPDLDLRFTIKFQEYSPNLWGHEFRSHHDYYIIATSDGTREGLESLQGGVCLTRGMKVLLRVGQSPRGGAVPRKPVSEMPMERDRGAAHSLEPGKENLPGDPTSNATSRGAEGPLPPPSMP
notes: also called sEphrin-B3–Fc; ephrin-B–Fc; source: bought: R&D Systems
For the molecule B3, the Kd in test [3] is 5.3 nM; in test [4], 2 nM.
